Test results: patent publication US20240392271

Test system: dXR (PTBP1 experiment; KRAB not stated in the excerpt) (synthetic construct)
Experiment: cell_activity
Conditions: mouse astrocytes, day 11

Sequence	activity (PTBP1/total protein relative to NT)	activity (PTBP1/total protein relative to NT) (no clear repression)
ACAGCAUCGUCCCAGACAUA / ACAGCATCGTCCCAGACATA / TATGTCTGGGACGATGCTGT [gRNA spacer 28.16 ; PTBP1 target 28.16]	0.464	–
CAGCGGGGAUCCGACGAGCU / CAGCGGGGATCCGACGAGCT / AGCTCGTCGGATCCCCGCTG [gRNA spacer 28.10 ; PTBP1 target 28.10]	–	0.945
